# Columns and labels:
# CCT2 (human) = CCT2 (human) (UniProt P78371); test: co-IP with control IgG, mass spectrometry; lysate of cells with N-FLAG B3GNT2
# EIF4A1 (human) = EIF4A1 (human) (UniProt P60842); test: as above
# EPRS (human) = EPRS (human) (UniProt P07814); test: as above
# GALNT2 (human) = GALNT2 (human) (UniProt Q10471); test: as above
# GAPDH (human) = GAPDH (human) (UniProt P04406); test: as above
# HADHA (human) = HADHA (human) (UniProt P40939); test: as above
# HSPD1 (human) = HSPD1 (human) (UniProt P10809); test: as above
# IPO13 (human) = IPO13 (human) (UniProt O94829); test: as above
# MAGT1 (human) = MAGT1 (human) (UniProt Q9H0U3); test: as above
# MARS (human) = MARS (human) (UniProt P56192); test: as above
# MSN (human) = MSN (human) (UniProt P26038); test: as above
# PIGR (human) = PIGR (human) (UniProt P01833); test: as above
# PSMD4 (human) = PSMD4 (human) (UniProt P55036); test: as above
# RARS (human) = RARS (human) (UniProt P54136); test: as above
# RPL26 (human) = RPL26 (human) (UniProt P61254); test: as above
# RPL32 (human) = RPL32 (human) (UniProt P62910); test: as above
# RPS4X (human) = RPS4X (human) (UniProt P62701); test: as above
# RRP12 (human) = RRP12 (human) (UniProt Q5JTH9); test: as above
# SDF4 (human) = SDF4 (human) (UniProt Q9BRK5); test: as above
# SLC27A4 (human) = SLC27A4 (human) (UniProt Q6P1M0); test: as above
# ANXA2 (human) = ANXA2 (human) (UniProt P07355); test: IgG control IP from lysate of cells overexpressing N-FLAG B3GNT2, then mass spectrometry
# CAPRIN1 (human) = CAPRIN1 (human) (UniProt Q14444); test: as above
# CASC3 (human) = CASC3 (human) (UniProt O15234); test: as above
# CPSF6 (human) = CPSF6 (human) (UniProt Q16630); test: as above
# EIF3I (human) = EIF3I (human) (UniProt Q13347); test: as above
# KHDRBS1 (human) = KHDRBS1 (human) (UniProt Q07666); test: as above
# MAGED2 (human) = MAGED2 (human) (UniProt Q9UNF1); test: as above
# PABPC1 (human) = PABPC1 (human) (UniProt P11940); test: as above
# SRP14 (human) = SRP14 (human) (UniProt P37108); test: as above
# SUPT16H (human) = SUPT16H (human) (UniProt Q9Y5B9); test: as above
# TAF15 (human) = TAF15 (human) (UniProt Q92804); test: as above
# TCP1 (human) = TCP1 (human) (UniProt P17987); test: as above
# TFAM (human) = TFAM (human) (UniProt Q00059); test: as above
# TIMP3 (human) = TIMP3 (human) (UniProt P35625); test: as above
# VIM (human) = VIM (human) (UniProt P08670); test: as above
# RPL10A = RPL10A (UniProt P62906); test: co-IP with anti-FLAG, mass spectrometry; C-FLAG B3GNT2
# RPN1 = RPN1 (UniProt P04843); test: as above
# Sequence of EPRS (human) (P07814 whole entry): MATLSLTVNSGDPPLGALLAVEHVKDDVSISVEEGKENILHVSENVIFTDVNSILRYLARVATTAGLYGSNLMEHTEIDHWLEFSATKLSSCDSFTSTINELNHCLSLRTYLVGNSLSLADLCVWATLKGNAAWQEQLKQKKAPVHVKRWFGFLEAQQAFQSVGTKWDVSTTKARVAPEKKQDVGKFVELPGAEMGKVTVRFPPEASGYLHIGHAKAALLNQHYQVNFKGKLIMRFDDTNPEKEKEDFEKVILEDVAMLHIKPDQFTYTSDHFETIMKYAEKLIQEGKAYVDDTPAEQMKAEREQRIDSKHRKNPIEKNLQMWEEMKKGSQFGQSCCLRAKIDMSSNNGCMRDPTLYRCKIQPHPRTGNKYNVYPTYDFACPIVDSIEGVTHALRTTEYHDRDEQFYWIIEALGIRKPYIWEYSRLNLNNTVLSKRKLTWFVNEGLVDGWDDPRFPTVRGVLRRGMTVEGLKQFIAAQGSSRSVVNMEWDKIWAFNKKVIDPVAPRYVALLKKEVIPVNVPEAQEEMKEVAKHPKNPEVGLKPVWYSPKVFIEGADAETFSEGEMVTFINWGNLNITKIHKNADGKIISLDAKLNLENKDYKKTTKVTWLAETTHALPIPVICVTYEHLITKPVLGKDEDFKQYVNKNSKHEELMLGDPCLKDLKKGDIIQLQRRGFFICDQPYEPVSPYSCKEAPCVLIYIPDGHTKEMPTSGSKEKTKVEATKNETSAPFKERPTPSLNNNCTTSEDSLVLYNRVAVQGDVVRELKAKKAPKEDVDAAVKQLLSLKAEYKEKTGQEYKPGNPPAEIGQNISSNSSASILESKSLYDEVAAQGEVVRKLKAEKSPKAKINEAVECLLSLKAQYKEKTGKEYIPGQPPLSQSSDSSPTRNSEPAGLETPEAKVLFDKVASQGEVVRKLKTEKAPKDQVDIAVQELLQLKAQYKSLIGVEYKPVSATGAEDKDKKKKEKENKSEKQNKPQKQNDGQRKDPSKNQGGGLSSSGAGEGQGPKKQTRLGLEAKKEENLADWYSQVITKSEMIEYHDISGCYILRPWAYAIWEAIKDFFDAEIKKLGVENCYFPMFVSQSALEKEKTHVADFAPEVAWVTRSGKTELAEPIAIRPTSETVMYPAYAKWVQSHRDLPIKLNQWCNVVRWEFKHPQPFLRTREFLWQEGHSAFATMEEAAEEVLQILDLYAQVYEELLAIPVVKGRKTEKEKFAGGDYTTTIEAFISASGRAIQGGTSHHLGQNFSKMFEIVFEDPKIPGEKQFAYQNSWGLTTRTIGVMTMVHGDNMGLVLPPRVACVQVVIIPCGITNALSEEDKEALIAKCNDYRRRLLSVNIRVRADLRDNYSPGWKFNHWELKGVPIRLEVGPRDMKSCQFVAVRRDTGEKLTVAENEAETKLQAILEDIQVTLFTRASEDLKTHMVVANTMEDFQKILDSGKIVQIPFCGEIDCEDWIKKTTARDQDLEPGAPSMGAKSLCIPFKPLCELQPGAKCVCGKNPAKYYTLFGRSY
# Sequence of MSN (human) (P26038 2-577 limits assumed): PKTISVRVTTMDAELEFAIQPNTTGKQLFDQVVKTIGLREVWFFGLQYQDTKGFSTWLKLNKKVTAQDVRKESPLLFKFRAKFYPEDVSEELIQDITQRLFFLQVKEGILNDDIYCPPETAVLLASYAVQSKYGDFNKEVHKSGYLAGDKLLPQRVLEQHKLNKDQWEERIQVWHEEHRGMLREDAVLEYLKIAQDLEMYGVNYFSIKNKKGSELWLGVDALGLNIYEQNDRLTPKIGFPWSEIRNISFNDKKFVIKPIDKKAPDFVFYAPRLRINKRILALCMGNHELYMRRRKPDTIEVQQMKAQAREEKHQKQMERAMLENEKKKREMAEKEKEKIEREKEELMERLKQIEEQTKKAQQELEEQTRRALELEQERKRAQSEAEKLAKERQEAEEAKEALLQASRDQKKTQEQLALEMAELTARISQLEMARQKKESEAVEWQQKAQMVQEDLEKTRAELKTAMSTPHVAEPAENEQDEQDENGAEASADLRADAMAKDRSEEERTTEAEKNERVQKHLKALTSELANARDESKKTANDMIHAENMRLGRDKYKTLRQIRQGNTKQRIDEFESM
# Sequence of SRP14 (human) (P37108 2-136 limits assumed): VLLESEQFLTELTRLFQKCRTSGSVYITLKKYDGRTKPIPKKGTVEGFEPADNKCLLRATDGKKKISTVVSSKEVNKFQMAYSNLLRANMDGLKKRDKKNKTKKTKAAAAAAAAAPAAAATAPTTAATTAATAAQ
# Sequence of IPO13 (human) (O94829 whole entry): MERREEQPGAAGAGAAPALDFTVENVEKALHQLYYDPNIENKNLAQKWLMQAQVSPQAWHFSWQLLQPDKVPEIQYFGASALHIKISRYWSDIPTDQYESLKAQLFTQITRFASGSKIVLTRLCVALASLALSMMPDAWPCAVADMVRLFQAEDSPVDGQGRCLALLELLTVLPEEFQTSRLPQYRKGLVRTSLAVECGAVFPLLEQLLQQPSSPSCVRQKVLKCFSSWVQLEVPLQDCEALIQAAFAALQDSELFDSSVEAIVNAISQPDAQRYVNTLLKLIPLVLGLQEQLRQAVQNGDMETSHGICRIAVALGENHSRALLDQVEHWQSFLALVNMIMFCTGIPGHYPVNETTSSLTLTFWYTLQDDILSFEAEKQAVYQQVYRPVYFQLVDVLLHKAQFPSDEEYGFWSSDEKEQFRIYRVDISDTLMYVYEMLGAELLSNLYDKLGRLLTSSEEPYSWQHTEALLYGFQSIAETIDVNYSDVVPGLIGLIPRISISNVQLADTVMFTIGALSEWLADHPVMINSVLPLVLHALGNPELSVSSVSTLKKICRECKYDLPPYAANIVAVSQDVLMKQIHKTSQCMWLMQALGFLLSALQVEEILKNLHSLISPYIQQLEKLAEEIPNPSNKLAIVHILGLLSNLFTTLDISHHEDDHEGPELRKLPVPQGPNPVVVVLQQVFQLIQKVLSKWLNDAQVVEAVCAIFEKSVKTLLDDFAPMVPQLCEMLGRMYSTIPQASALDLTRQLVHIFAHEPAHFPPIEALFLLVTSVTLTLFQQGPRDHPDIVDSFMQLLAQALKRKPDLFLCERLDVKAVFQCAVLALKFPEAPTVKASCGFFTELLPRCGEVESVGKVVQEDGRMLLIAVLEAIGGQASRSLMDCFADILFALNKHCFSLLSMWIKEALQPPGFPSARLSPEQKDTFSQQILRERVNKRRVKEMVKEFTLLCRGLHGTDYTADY
# Sequence of SUPT16H (human) (Q9Y5B9 2-1047 limits assumed): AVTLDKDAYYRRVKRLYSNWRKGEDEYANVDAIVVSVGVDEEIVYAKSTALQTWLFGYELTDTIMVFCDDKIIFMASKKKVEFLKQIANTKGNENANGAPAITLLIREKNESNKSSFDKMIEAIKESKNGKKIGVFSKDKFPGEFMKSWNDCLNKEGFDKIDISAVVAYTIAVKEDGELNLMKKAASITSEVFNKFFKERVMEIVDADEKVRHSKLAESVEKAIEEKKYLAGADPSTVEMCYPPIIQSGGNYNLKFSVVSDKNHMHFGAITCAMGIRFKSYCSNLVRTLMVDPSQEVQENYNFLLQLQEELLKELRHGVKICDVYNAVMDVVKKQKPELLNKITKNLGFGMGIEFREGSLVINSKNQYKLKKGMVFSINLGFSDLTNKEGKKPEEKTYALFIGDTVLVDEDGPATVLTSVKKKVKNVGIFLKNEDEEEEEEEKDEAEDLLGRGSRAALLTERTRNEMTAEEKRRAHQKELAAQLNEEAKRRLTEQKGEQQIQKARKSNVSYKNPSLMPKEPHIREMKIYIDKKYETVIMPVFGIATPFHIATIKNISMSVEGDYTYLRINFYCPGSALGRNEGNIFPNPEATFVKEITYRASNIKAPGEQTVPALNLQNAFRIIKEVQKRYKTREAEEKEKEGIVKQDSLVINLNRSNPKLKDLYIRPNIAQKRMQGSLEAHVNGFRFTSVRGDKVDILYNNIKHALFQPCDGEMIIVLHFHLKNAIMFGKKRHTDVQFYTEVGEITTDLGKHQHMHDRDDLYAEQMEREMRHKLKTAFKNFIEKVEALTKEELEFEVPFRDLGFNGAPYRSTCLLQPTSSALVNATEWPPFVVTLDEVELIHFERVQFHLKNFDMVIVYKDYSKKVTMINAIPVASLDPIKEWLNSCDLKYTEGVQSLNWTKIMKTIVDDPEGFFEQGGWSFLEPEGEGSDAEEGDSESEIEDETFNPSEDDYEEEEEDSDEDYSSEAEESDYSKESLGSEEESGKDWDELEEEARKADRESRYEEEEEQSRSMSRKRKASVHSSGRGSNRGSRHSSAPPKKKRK
# Sequence of SLC27A4 (human) (Q6P1M0 whole entry): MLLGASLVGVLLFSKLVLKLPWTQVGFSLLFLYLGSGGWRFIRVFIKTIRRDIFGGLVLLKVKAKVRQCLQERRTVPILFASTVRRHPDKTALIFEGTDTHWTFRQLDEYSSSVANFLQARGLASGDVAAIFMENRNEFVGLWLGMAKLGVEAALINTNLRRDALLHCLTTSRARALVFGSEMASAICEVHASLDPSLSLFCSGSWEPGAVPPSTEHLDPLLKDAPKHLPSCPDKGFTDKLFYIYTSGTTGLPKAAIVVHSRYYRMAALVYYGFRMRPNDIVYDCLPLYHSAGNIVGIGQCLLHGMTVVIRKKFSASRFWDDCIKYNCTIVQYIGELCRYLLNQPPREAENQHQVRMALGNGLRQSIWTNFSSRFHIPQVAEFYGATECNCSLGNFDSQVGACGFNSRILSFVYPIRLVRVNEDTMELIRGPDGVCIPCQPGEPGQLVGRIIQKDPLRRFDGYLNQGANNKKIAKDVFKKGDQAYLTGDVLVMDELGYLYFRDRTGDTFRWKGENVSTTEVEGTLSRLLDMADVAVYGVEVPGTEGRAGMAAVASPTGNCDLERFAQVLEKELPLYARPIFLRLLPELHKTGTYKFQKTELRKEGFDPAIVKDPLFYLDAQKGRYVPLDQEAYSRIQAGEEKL
# Sequence of TIMP3 (human) (P35625 24-211 limits assumed): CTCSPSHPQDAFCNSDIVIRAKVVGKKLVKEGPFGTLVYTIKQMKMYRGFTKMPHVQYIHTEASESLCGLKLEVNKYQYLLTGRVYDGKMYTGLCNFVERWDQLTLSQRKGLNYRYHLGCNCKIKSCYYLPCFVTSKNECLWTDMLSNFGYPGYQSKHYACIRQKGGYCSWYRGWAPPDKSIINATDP
substance,measurement,setting,value
IgG control (Millipore Sigma 12-371) (antibody),co-IP mass spectrometry count,CCT2 (human),0
same,co-IP mass spectrometry count,EIF4A1 (human),0
same,co-IP mass spectrometry count,EPRS (human),0
same,co-IP mass spectrometry count,GALNT2 (human),0
same,co-IP mass spectrometry count,GAPDH (human),11
same,co-IP mass spectrometry count,HADHA (human),0
same,co-IP mass spectrometry count,HSPD1 (human),0
same,co-IP mass spectrometry count,IPO13 (human),0
same,co-IP mass spectrometry count,MAGT1 (human),0
same,co-IP mass spectrometry count,MARS (human),0
same,co-IP mass spectrometry count,MSN (human),0
same,co-IP mass spectrometry count,PIGR (human),0
same,co-IP mass spectrometry count,PSMD4 (human),0
same,co-IP mass spectrometry count,RARS (human),0
same,co-IP mass spectrometry count,RPL26 (human),5
same,co-IP mass spectrometry count,RPL32 (human),0
same,co-IP mass spectrometry count,RPS4X (human),12
same,co-IP mass spectrometry count,RRP12 (human),0
same,co-IP mass spectrometry count,SDF4 (human),0
same,co-IP mass spectrometry count,SLC27A4 (human),0
same,co-IP mass spectrometry count (N-term IgG),ANXA2 (human),15
same,co-IP mass spectrometry count (N-term IgG),CAPRIN1 (human),6
same,co-IP mass spectrometry count (N-term IgG),CASC3 (human),0
same,co-IP mass spectrometry count (N-term IgG),CPSF6 (human),28
same,co-IP mass spectrometry count (N-term IgG),EIF3I (human),0
same,co-IP mass spectrometry count (N-term IgG),KHDRBS1 (human),10
same,co-IP mass spectrometry count (N-term IgG),MAGED2 (human),0
same,co-IP mass spectrometry count (N-term IgG),PABPC1 (human),37
same,co-IP mass spectrometry count (N-term IgG),SRP14 (human),0
same,co-IP mass spectrometry count (N-term IgG),SUPT16H (human),0
same,co-IP mass spectrometry count (N-term IgG),TAF15 (human),10
same,co-IP mass spectrometry count (N-term IgG),TCP1 (human),0
same,co-IP mass spectrometry count (N-term IgG),TFAM (human),0
same,co-IP mass spectrometry count (N-term IgG),TIMP3 (human),0
same,co-IP mass spectrometry count (N-term IgG),VIM (human),452
C-terminal FLAG tagged B3GNT2 (from UniProt Q9NY97 1-397) (enzyme),co-IP mass spectrometry count,RPL10A,16
same,co-IP mass spectrometry count,RPN1,7
